{
  "source": "patent US11938195B2",
  "about": "“Upconversion nanoparticle peptide conjugates” (BP InnoMed Limited, priority 2021, dated 2024)",
  "key": {"EBV-negative HeLa cells": {"system": "EBV-negative HeLa cells", "experiment": "MTT cytotoxicity assay, HeLa cells", "format": "cell-based, human", "set-up": "unit not given here", "conditions": "24 h incubation"}, "EBV-negative MRC-5 cells": {"system": "EBV-negative MRC-5 cells", "experiment": "MTT cytotoxicity assay, MRC-5 cells", "format": "cell-based, human", "set-up": "unit not given here", "conditions": "24 h incubation"}, "[1]": {"experiment": "Peptide release from nanoprobes under various time intervals (UV-vis absorbance)", "format": "physicochemical", "conditions": "0.5 mg/mL", "excerpt": "The stability and capability of cleavage of the pH linker were also studied. […] More importantly, TEM images of UCNP-P5 at different pH buffers were observed and investigated in FIG. 1, providing direct evidence on pH-responsive peptide release from UCNP."}, "[2]": {"experiment": "Peptide release from nanoprobes under various pH buffers (UV-vis absorbance)", "format": "physicochemical", "conditions": "24 h in buffer, 0.5 mg/mL", "excerpt": "The stability and capability of cleavage of the pH linker were also studied. […] More importantly, TEM images of UCNP-P5 at different pH buffers were observed and investigated in FIG. 1, providing direct evidence on pH-responsive peptide release from UCNP. […]"}, "p65": {"system": "p65", "experiment": "Western blot of p65 (NF-κB) in C666 cells", "format": "cell-based", "excerpt": "NF-κB signaling pathway is critical for the survival of EBV-infected tumor cells. Here we investigated if our nanoprobes could affect this oncogenic pathway. EBV-positive LCL3 and C666 cells were used as models, EBV-negative HK1 cells were used as control and Western blot was used to analyze the protein expression of p65, a major transcription factor in the NF-κB family. […] GAPDH and Histone are regarded as internal standards in cytosolic and nuclear fractions, respectively. […] This is consistent with the cellular uptake results.\nWestern blotting: EBV-positive C666, LCL3 and EBV-negative HK1 cell pellets were treated with phosphatase and protease inhibitors at 0-4° C. for 30 min. The total protein concentrations were calculated by protein absorbance. The protein was resolved by sodium dodecyl sulfate-polyacrylamide gel electrophoresis (SDS-PAGE) and transferred to cellulose filter membranes. The membranes were blocked with 3% BSA in Tris-buffered saline in 0.1% Tween 20 (TBST) for 1 h with gentle shaking and subsequently incubated with primary antibodies (1:1000) in 3% BSA in TBST at 4° C. for overnight. After rinsing with TBST buffer three times, the blots were then incubated with corresponding secondary anti-rabbit antibody (1:6000) for 1 h. After that, the blots were rinsed again with 3% BSA in TBST for 1 h shaking at room temperature. Lastly, the density of bands was determined by image analysis system after washing with TBST buffer three times."}, "EBV-positive C666 cells": {"system": "EBV-positive C666 cells", "experiment": "Two-photon confocal imaging, C666", "format": "cell-based", "conditions": "mainly from the nuclei, 24 h incubation", "protocol": "After the study of cellular uptake, fluorescent confocal microscopy was used to study the sub-cellular localization with the same set of EBV-/LMP1-positive and -negative cell lines. All these cell lines were treated with as-prepared samples for different time intervals of 1 h, 3 h, 6 h, 12 h and 24 h. Fluorescence signals in the cells were imaged under 980 nm excitation.\nThe cells were then co-stained with 0.05 mM nuclear dye DRAQ5 for 0.5 h for confocal imaging with a Leica SP8 confocal microscope equipped with a coherent femtosecond laser (690-1050 nm), argon laser (432 nm, 457 nm and 488 nm), He—Ne laser (632 nm), UV lamp. A stage-top cell culture chamber was also used to maintain the atmospheric conditions of 2-7% CO2 and a temperature of 37° C."}, "C666 derived xenografts": {"system": "C666 derived xenografts", "experiment": "In vivo suppression assay, C666 xenograft", "excerpt": "To determine the antitumor efficacy of the new nanoprobes in vivo, their therapeutic effects were investigated in C666 and HeLa derived xenografts in BALB/c nude mice. The mice were randomly divided into five groups: (1) control (PBS), (2) UCNP, (3) UCNP-P5, (4) UCNP-P6, (5) UCNP-P7. In order to recapitulate the clinical setting of drug delivery, intravenous injection (via a tail vein) was used to deliver these agents to the immunocompromised animal.\nIn vivo suppression assays: EBV-positive C666 and EBV-negative HeLa cells were suspended in 200 μL of serum-free RMPI 1640 and DMEM respectively. Female BALB/c nude mice (6-8 weeks) which obtained from HKU were then injected with the cells in the right flank. Intravenous injections were performed when the average tumor volumes reached ˜200 mm^3. 0.25 mg/tumor dose of UCNP and UCNP-Pn [n=5, 6 and 7 (SEQ ID NO: 5, 6, 7)] in […] PBS buffer were injected through tail vein of mice using a 24-gauge syringe. Mice injected with the same volume of PBS buffer served as control. The body weight and tumor volumes of the mice were measured three times per week; in which the latter is calculated by (L×W^2)/2, where L and W are the longer and shorter tumor dimensions respectively. Intravenous injection at the tail vein were performed twice a week and the mice were sacrificed after 33-day experimental period; the tumors were extracted and weighed. The treatment groups are unknown to the investigators for the experimental and data analysis processes. The animal experiments conducted were approved by the Department of Health of the HKSAR Government. All animal procedures are within the Guidelines for Care and Use of Laboratory Animals of HKBU and approved by the Animal Ethics Committee of HKBU.\nHematoxylin and eosin (H&E) staining: In general, the transplanted C666 and HeLa derived tumor tissues were collected and fixed with formalin, followed by embedding in paraffin. The histologic sections were then stained with hematoxylin and eosin. Other major organ tissues (heart, liver, spleen, lung, kidney, brain) were conducted in the same procedures."}, "[3]": {"conditions": "C666 tumor-bearing mice, 33-day experimental period"}},
  "note": "Where no end group is shown, it is not given here. [ ]: non-standard residue; d: D form. Ahx = NCCCCCC(=O)O",
  "data": [
    {"substance": "UCNP-P5: UCNP is NaGdF4:Yb^3+, Er^3+@NaGdF4 and plurality of polypeptides is Ahx-YFMVFGGRrRKGGFWLY (SEQ ID NO: 5), pH-sensitive imine linker ([Ahx]YFMVFGGR[dR]RKGGFWLY; also: conjugated to UCNP NaGdF4:Yb3+,Er3+@NaGdF4 via pH-sensitive imine linker)", "values": [
      {"measurement": "IC50 in HeLa", "setting": "EBV-negative HeLa cells", "value": 1086},
      {"measurement": "IC50 in MRC-5", "setting": "EBV-negative MRC-5 cells", "value": 1280},
      {"measurement": "Peptide release rate", "setting": "[1]; 1 h", "value": 0, "unit": "%"},
      {"measurement": "Peptide release rate", "setting": "[1]; 3 h", "value": 0, "unit": "%"},
      {"measurement": "Peptide release rate", "setting": "[1]; 6 h", "value": 0.1, "unit": "%"},
      {"measurement": "Peptide release rate", "setting": "[1]; 12 h", "value": 0.5, "unit": "%"},
      {"measurement": "Peptide release rate", "setting": "[1]; 24 h", "value": 0.7, "unit": "%"},
      {"measurement": "Peptide release rate", "setting": "[1]; 3 day", "value": 0.8, "unit": "%"},
      {"measurement": "Peptide release rate", "setting": "[1]; 5 day", "value": 1.1, "unit": "%"},
      {"measurement": "Peptide release rate", "setting": "[1]; 7 day", "value": 1.9, "unit": "%"},
      {"measurement": "Peptide release rate", "setting": "[2]; pH 5.0", "value": 84.6, "unit": "%"},
      {"measurement": "Peptide release rate", "setting": "[2]; pH 5.5", "value": 56.1, "unit": "%"},
      {"measurement": "Peptide release rate", "setting": "[2]; pH 6.0", "value": 34.8, "unit": "%"},
      {"measurement": "Peptide release rate", "setting": "[2]; pH 6.5", "value": 20.9, "unit": "%"},
      {"measurement": "Peptide release rate", "setting": "[2]; pH 7.0", "value": 6.1, "unit": "%"},
      {"measurement": "Peptide release rate", "setting": "[2]; pH 7.4", "value": 0, "unit": "%"},
      {"measurement": "Decreased p65 expression, nuclear fraction", "setting": "p65", "value": 89, "unit": "%"},
      {"measurement": "Responsive emission enhancement (lambda scan)", "setting": "EBV-positive C666 cells", "value": "two-fold"},
      {"measurement": "Effect on average tumor size", "setting": "C666 derived xenografts; 12.5 mg/kg, intravenous (tail vein), twice a week, 33 days", "value": "significantly reduce the average tumor size"},
      {"measurement": "Tumor uptake relative to UCNP-P6 and UCNP-P7 (ICP-MS biodistribution)", "setting": "C666 derived xenografts; C666 tumor, Gd ions", "value": "~3", "unit": "fold"},
      {"measurement": "Body weight", "setting": "C666 derived xenografts; [3]", "value": "slightly increased"},
      {"measurement": "Various organ weights", "setting": "C666 derived xenografts; [3]", "value": "slightly increased"}
    ]}
  ]
}
